Data from publication PMC10849721 (bioRxiv, 2024).

B1: Kv2.2 (natural protein)
chain: MAEKAPPGLNRKTSRSTLSLPPEPVDIIRSKTCSRRVKINVGGLNHEVLWRTLDRLPRTRLGKLRDCNTHESLLEVCDDYNLNENEYFFDRHPGAFTSILNFYRTGKLHMMEEMCALSFGQELDYWGIDEIYLESCCQARYHQKKEQMNEELRREAETMREREGEEFDNTCCPEKRKKLWDLLEKPNSSVAAKILAIVSILFIVLSTIALSLNTLPELQENDEFGQPSDNRKLAHVEAVCIAWFTMEYLLRFLSSPNKWKFFKGPLNVIDLLAILPYYVTIFLTESNKSVLQFQNVRRVVQIFRIMRILRILKLARHSTGLQSLGFTLRRSYNELGLLILFLAMGIMIFSSLVFFAEKDEDATKFTSIPASFWWATITMTTVGYGDIYPKTLLGKIVGGLCCIAGVLVIALPIPIIVNNFSEFYKEQKRQEKAIKRREALERAKRNGSIVSMNLKDAFARSMELIDVAVEKAGESANTKDSVDDNHLSPSRWKWARKALSETSSNKSYENKYQEVSQNDSHEHLNNTSSSSPQHLSAQKLEMLYNEITKTQPHSHPNPDCQEQPERPCVYEEEIEMEEVICPQEQLAVAQTEVIVDMKSTSSIDSFTSCATDFTETERSPLPPPSASHLQMKFPTDLPGTDEHQRARAPPFLTLSRDKGPAAREAAVDYAPIDITVNLDAGASHGPLQPDSASDSPKSSLKGSNPLKSRSLKVNFQENRASAPQTPPSTARPLPVTTADFPLTTPQHMSTILLEEALPQGQPPLLEADDSAHCQGPSKGFSPRFPKQKLFPFSSRERRSFTEIDTGEDEDFLDLQRSRPDKQADPSPNCLADKPGDARDSLREEGCVGSSSPQNTDHNCRQDIYQAVGEVKKDSSQEGYKMENHLFAPEIHSNPGDTGHCPTRETSM
B2: Kv5.1 (natural protein)
chain: MDASAEQSLPEPGSQDSVAGEDIEIVVNVGGVRQVLYGDLLSQYPETRLAELINCLAGGYDTIFSLCDDYDPGKREFYFDRDPDAFKCVIEVYYFGEVHMKKGICPICFKNEMDFWKVDLKFLDDCCKSHLSEKREELEEIARRVQLILDDLGVDAAEGRWRRCQKCVWKFLEKPESSCPARVVAVLSFLLILVSSVVMCMGTIPELQVVDSEGNRVEHPTLENVETACIGWFTLEYLLRLFSSPNKLHFALSFMNIVDVLAILPFYVSLTLTHLGARMMELTNVQQAVQALRIMRIARIFKLARHSSGLQTLTYALKRSFKELGLLLMYLAVGIFVFSALGYTMEQSHPETLFKSIPQSFWWAIITMTTVGYGDIYPKTTLGKLNAAISFLCGVIAIALPIHPIINNFVRYYNKQRVLETAAKHELELMELNSSSAEGKPGGSRSDLDTLPPEPAAREGPSWGSRLKLSHSDTFIPLLTEEKHHRTRLQSCK

Legend:
Kv5.1 = target: B2; assay: co-IP
Kv2.2 = target: B1; assay: co-IP

percent co-IPed, relative to the subunit's own IP (Kv5.1)	percent co-IPed, relative to the subunit's own IP (Kv2.2)	Binder
7.4%	–	B1
–	31%	B2
